Test results: PMC5596342, “Activity-Related Conformational Changes in D,D-Carboxypeptidases Revealed by In Vivo Periplasmic Förster Resonance Energy Transfer Assay in Escherichia coli” (mBio, 2017)

B1: PBP5 (D,D-carboxypeptidase, dacA), fluorescent-protein fusions mNG-PBP5 and mCh-PBP5 (enzyme, Escherichia coli, UniProt P0AEB2 30-403, looked up)
chain: DDLNIKTMIPGVPQIDAESYILIDYNSGKVLAEQNADVRRDPASLTKMMTSYVIGQAMKAGKFKETDLVTIGNDAWATGNPVFKGSSLMFLKPGMQVPVSQLIRGINLQSGNDACVAMADFAAGSQDAFVGLMNSYVNALGLKNTHFQTVHGLDADGQYSSARDMALIGQALIRDVPNEYSIYKEKEFTFNGIRQLNRNGLLWDNSLNVDGIKTGHTDKAGYNLVASATEGQMRLISAVMGGRTFKGREAESKKLLTWGFRFFETVNPLKVGKEFASEPVWFGDSDRASLGVDKDVYLTIPRGRMKDLKASYVLNSSELHAPLQKNQVVGTINFQLDGKTIEQRPLVVLQEIPEGNFFGKIIDYIKLMFHHWFG
notes: PBP5 (dacA) of Escherichia coli; the FP is fused to the N terminus; construct details in Text S7 and S8; One molecule for the two differently tagged copies (mNG-PBP5 and mCh-PBP5), each chain carrying only one of the two fluorescent proteins; PDB 5J8X is a soluble form that lacks the C-terminal helix; also called FP-PBP5; source: E. coli, expressed from plasmid pSAV057 or pTHV037 (15 µM IPTG), in …
B2: PBP5^S44G active-site mutant, fusions mNG-PBP5^S44G and mCh-PBP5^S44G (enzyme, Escherichia coli, UniProt P0AEB2 30-403, looked up)
chain: DDLNIKTMIPGVPQIDAESYILIDYNSGKVLAEQNADVRRDPAGLTKMMTSYVIGQAMKAGKFKETDLVTIGNDAWATGNPVFKGSSLMFLKPGMQVPVSQLIRGINLQSGNDACVAMADFAAGSQDAFVGLMNSYVNALGLKNTHFQTVHGLDADGQYSSARDMALIGQALIRDVPNEYSIYKEKEFTFNGIRQLNRNGLLWDNSLNVDGIKTGHTDKAGYNLVASATEGQMRLISAVMGGRTFKGREAESKKLLTWGFRFFETVNPLKVGKEFASEPVWFGDSDRASLGVDKDVYLTIPRGRMKDLKASYVLNSSELHAPLQKNQVVGTINFQLDGKTIEQRPLVVLQEIPEGNFFGKIIDYIKLMFHHWFG
notes: PBP5 (dacA) of Escherichia coli with the active-site change of Ser to Gly at position 44; One molecule for the two differently tagged copies; also called FP-PBP5^S44G; source: E. coli ΔdacA strain, expressed from plasmids pSAV057 and pTHV037, in the periplasm of fixed cells; not shown: mNeonGreen (donor copy) or mCherry (acceptor copy), N-terminal, kept
B3: PBP6b^S63G active-site mutant, fusions mNG-PBP6b^S63G and mCh-PBP6b^S63G (enzyme, Escherichia coli, UniProt P33013 22-388, looked up)
chain: AENIPFSPQPPEIHAGSWVLMDYTTGQILTAGNEHQQRNPAGLTKLMTGYVVDRAIDSHRITPDDIVTVGRDAWAKDNPVFVGSSLMFLKEGDRVSVRDLSRGLIVDSGNDACVALADYIAGGQRQFVEMMNNYAEKLHLKDTHFETVHGLDAPGQHSSAYDLAVLSRAIIHGEPEFYHMYSEKSLTWNGITQQNRNGLLWDKTMNVDGLKTGHTSGAGFNLIASAVDGQRRLIAVVMGADSAKGREEEARKLLRWGQQNFTTVQILHRGKKVGTERIWYGDKENIDLGTEQEFWMVLPKAEIPHIKAKYTLDGKELTAPISAHQRVGEIELYDRDKQVAHWPLVTLESVGEGSMFSRLSDYFHHKA
notes: PBP6b (dacD) of Escherichia coli with the active-site serine 63 changed to glycine; One molecule for the two differently tagged copies; source: E. coli, expressed from plasmids pSAV057 and pTHV037, in the periplasm of fixed cells; not shown: mNeonGreen (donor copy) or mCherry (acceptor copy), N-terminal, kept
B4: PBP6a (D,D-carboxypeptidase, dacC), fusions mNG-PBP6a and mCh-PBP6a (enzyme, Escherichia coli, UniProt P08506 28-400, looked up)
chain: AEQTVEAPSVDARAWILMDYASGKVLAEGNADEKLDPASLTKIMTSYVVGQALKADKIKLTDMVTVGKDAWATGNPALRGSSVMFLKPGDQVSVADLNKGVIIQSGNDACIALADYVAGSQESFIGLMNGYAKKLGLTNTTFQTVHGLDAPGQFSTARDMALLGKALIHDVPEEYAIHKEKEFTFNKIRQPNRNRLLWSSNLNVDGMKTGTTAGAGYNLVASATQGDMRLISVVLGAKTDRIRFNESEKLLTWGFRFFETVTPIKPDATFVTQRVWFGDKSEVNLGAGEAGSVTIPRGQLKNLKASYTLTEPQLTAPLKKGQVVGTIDFQLNGKSIEQRPLIVMENVEEGGFFGRVWDFVMMKFHQWFGSWFS
notes: PBP6a (dacC) of Escherichia coli; construct details in Text S7 and S8; One molecule for the two differently tagged copies; also called FP-PBP6a; source: E. coli, expressed from plasmids pSAV057 and pTHV037 (15 µM IPTG), in the periplasm of fixed cells; not shown: mNeonGreen (donor copy) or mCherry (acceptor copy), N-terminal, kept
B5: PBP6a^S66G active-site mutant, fusions mNG-PBP6a^S66G and mCh-PBP6a^S66G (enzyme, Escherichia coli, UniProt P08506 28-400, looked up)
chain: AEQTVEAPSVDARAWILMDYASGKVLAEGNADEKLDPAGLTKIMTSYVVGQALKADKIKLTDMVTVGKDAWATGNPALRGSSVMFLKPGDQVSVADLNKGVIIQSGNDACIALADYVAGSQESFIGLMNGYAKKLGLTNTTFQTVHGLDAPGQFSTARDMALLGKALIHDVPEEYAIHKEKEFTFNKIRQPNRNRLLWSSNLNVDGMKTGTTAGAGYNLVASATQGDMRLISVVLGAKTDRIRFNESEKLLTWGFRFFETVTPIKPDATFVTQRVWFGDKSEVNLGAGEAGSVTIPRGQLKNLKASYTLTEPQLTAPLKKGQVVGTIDFQLNGKSIEQRPLIVMENVEEGGFFGRVWDFVMMKFHQWFGSWFS
notes: PBP6a (dacC) of Escherichia coli with the active-site serine 66 changed to glycine; One molecule for the two differently tagged copies; source: E. coli, expressed from plasmids pSAV057 and pTHV037, in the periplasm of fixed cells; not shown: mNeonGreen (donor copy) or mCherry (acceptor copy), N-terminal, kept

Target: the molecule itself
Test: FRET or BRET; spectrum-based periplasmic FRET (mNG donor, mCh acceptor, spectral unmixing, acceptor FRET efficiency EfA) in E. coli grown in Gb1 at 28°C, induced with 15 µM IPTG, fixed with 2.8% formaldehyde and 0.04% glutaraldehyde, measured in PBS in a spectrofluorimeter; where indicated cells treated with 2 µg/ml amdinocillin or 1 µg/ml aztreonam during induction; cut-off for interaction EfA above 1.4%

Row | Protein | EfA (acceptor FRET efficiency) [%]
1 | B1 | 2
2 | B2 | 5.4
3 | B3 | 2
4 | B4 | 3.2
5 | B5 | 3.8
